B1: Retinoic acid receptor beta, residues 85 to 161; numbered along this chain, P10826 (parent)
chain: YKPCFVCQDKSSGYHYGVSACEGCKGFFRRSIQKNMIYTCHRDKNCVINKVTRNRCQYCRLQKCFEVGMSKESVRND

Variants of: B1
Test: abundance fitness (aPCA) (normalised: wild type 0, dead -1); higher = more abundant; growth selection in yeast, the domain comes from the species named
Settings: Homo sapiens

Abundance fitness, by site and new letter:
C7: W -0.656 | D -0.724 | N -0.615 | I -0.806 | H -0.932 | F -0.999 | K -0.879 | M -0.753 | E -1.23 | A -0.991 | Y -0.609 | Q -1 | G -1.05 | T -0.438 | L -0.832 | S -0.868 | V -0.879
K2: S -0.068 | Q 0.052 | Y -0.1 | P -0.169 | L -0.162 | N 0.162 | R -0.282 | V -0.104 | W -0.308 | M -0.074
C4: R -0.827 | G -0.859 | I -0.917 | P -0.428 | T -1.26 | N -0.731 | D -0.715 | M -0.754 | F -0.687 | V -0.807 | A -0.691 | L -0.778 | Q -0.889 | Y -0.592 | W -0.954
S12: F -0.205 | E -0.041 | D 0.16 | C 0.168 | A 0.057 | G -0.242
F5: S -0.053 | Q -0.046 | G -0.118 | W -0.316 | A 0.053 | E -0.38 | T -0.048 | L -0.076 | P 0.076 | I -0.022 | N -0.39 | D -0.314 | V -0.154 | R -0.421 | Y -0.043 | M -0.155 | H -0.435 | C -0.244 | K -0.418
S11: D 0 | G -0.165 | N 0.173 | Q -0.33 | A -0.21 | F -0.377 | Y -0.407 | T -0.254 | P -0.088 | H -0.525 | K -0.242 | V -0.221 | I -0.27 | L -0.263 | C -0.414
Q8: W -0.083 | S 0.064 | K 0 | M 0.029 | E 0.111 | G 0.044 | P -0.813 | N -0.035 | F -0.092 | A 0.022 | H 0.055 | V -0.598 | T 0.015 | C -0.073 | D 0.08 | R -0.263 | I -1.01
D9: W -0.529 | F -0.65 | Y -0.57 | T -1.01 | E -0.03 | R -0.631 | S -0.71 | N -0.828 | K -0.722 | A -0.465 | C -0.525 | P -1 | G -0.588 | H -0.543 | Q -0.6 | V -0.753 | M -0.457 | I -0.726
K10: N 0.146 | D 0.112 | Y 0.115 | S 0.165 | G -0.045 | I 0.154 | C 0.019 | H 0.024 | L 0.043 | T 0.078 | A 0.147 | R 0.034 | F 0.026 | P -0.03 | W -0.042 | V 0.007 | M 0.078
V6: G -0.746 | H -0.748 | I -0.13 | A -0.711 | W -0.795 | R -0.83 | N -0.873 | K -0.82 | T -0.822 | E -1.02 | S -0.907 | C -0.995 | M -0.76 | L -0.81 | Q -0.926 | P -0.849 | F -0.374
P3: K 0.048 | I -0.042 | R -0.321 | D 0.225 | A 0.064 | S 0.031 | Q 0.079 | C -0.101 | E 0.136 | Y 0.174 | H 0.006 | F 0.037 | N 0.162 | L 0.027 | V -0.023 | W -0.223

From the Human Domainome abundance scans (Beltran et al. 2025)
